From a protein production outcome set (Wang et al. 2014)

Assay: label from the status in PepcDB records

Sequence	protein production
MKWRCLIYIETRGDILFMTKWFNVGKIVNTHGVRGEIRVISRTDFPEERYKVGNTLYISNEKGTDYLPVKVTSHRQHKTFDLLTFEGYNNVDEVEKFKGSLIKVPEEQLGELAEGEYYYHEIIGCSVVTEEGEALGTIKEILSPGANDVWVIKRPKGQDLLIPYIDDVVLQVNIENKLVTIHVMEGLLLEHHHHHH	not failed
MKWYTKYLQVYEKPFSEAPQEIVEEVRNKLKLLQSDNPLVTVSLIGYNEEKHLLASLWSLSEMKCKYPIEIIGTDNDSKDQTATIYEATGIPYVIEHQHSCGHARLCGLKRAKGKYHINIDSDTMYPPHYVETMVDALERPGIVAVSSLWSYIPDKEHSWVGLKIYEFIRDIHLWIQSIKRPELSVRGLVFAYRTDYARQVGIRTDIRRGEDGSLALRLKEYGNIYFIRKRKARAITGYGTISADGSLFNSFKVRAIYALKNIGRVFTRKKEYKDEDDNLIKSLEHHHHHH	not failed
MKYAITGATGHLGQQIVAAMRPLVATTELYLGVHTLSKAQVYQQQGLHIAAIDYQQPEQLRAFFQDSDVLIYIPSKSHDSYSRVQEFENVLAAVQQANVHHFLVMGFIADQVNNPFALSAFYGYVPRRLAGSDINYTIVRNALYADPLVPYLPELIERHNVVYPMADQALSFISQADSAAAFAKVATTPDLLQRGRIYTLTQSRAYTMPELATVLSQVSGQLIGYRPVSLQAFSNMYNQNGEGPMLASMYAGGARGLLATVSDDYQLIMDRPAQSLLDYLQTNYQKS	failed
MKYSLGIDLGTTFSVVSIIDENGAPKVLKNKEGNTLTPSVIYFSGEEIIVGDDAKEMQAMGDNNIACFFKRNMGDENFVLEFQNKYYNAEDLSVIVLKKLKKDAEDFLKAEVKDAVITVPAYFNNIQRQSTINAGKRAEFNVLSILNEPTAAAMAYGMKASGENKNILVYDLGGGTFDVTLVHIGEELIKVLSTDGDHELGGKDWDDRIAMYIGEKFFEKFGVNPMDDIEYYNDILVKCENVKKHLSKRESTDISIYYCDLSEKFTITKEIFLGLTGDLLQRTKSLSDDVIKSAGLTWEDIDGVLPVGGSTRMPMVLDFIKEVSKKEPIVGINVDEAVSIGAAIKASMENATNTPTLRREEKALFTLGGYKKTEDVMSHSLGMIALNSTGERYINSIIIEKNKKIPCTEKRPYEIRTGRNRNNVLEVYMLQGESEEISDCTILGKYVFYDIEYVGRKPSIIDIEYSYNKNGVVDVFATQRETAKKLPLKIEKLSEDFIFEEELNEKEEAVHKNIVIAIDLSGSMRGKPLEEAIEASKTFVDSIDEGSFSLALIGFADKVKTLINLTEDREEIFRAIDGLKKADVGTSTMSEPFSEAYNILKDAYGDCFVVVLTDGQWYGKKDIMAEVNKCKEYEIEIAAIGFGNAKKDFLDKIATCEENSIFTEVSNLKQSFSRIAKVISRSDGSIKIFQKSNSIKLR	failed
MKYTVYLFDFDYTLADSSRGIVTCFRSVLERHGYTGITDDMIKRTIGKTLEESFSILTGITDADQLESFRQEYSKEADIYMNANTILFPDTLPTLTHLKKQGIRIGIISTKYRFRILSFLRNHMPDDWFDIIIGGEDVTHHKPDPEGLLLAIDRLKACPEEVLYIGDSTVDAGTAAAAGVSFTGVTSGMTTAQEFQAYPYDRIISTLGQLISVPEDKS	not failed
MLAAGMSRRMGFNKLLAPLCGKRVLWHVLELVARFEGVLEGAVVVTSGEVADVLRRERPPGRRGLFRVVVNREQWRGLSHSIRLGVEASPGARAYLFFNGDRPFVSKHTVARVLALYMARRPLIAAPMAGGAIAPPVVVDSRLRGELLRLSGDTGVRSLFGKYRDSLAVVEVDDPGLHLDVDTPEDLERASKMCSQLGGGPREKPLEHHHHHH	failed
MLAERGANITGLDISGPMLQQGREKAQATGVDDRVEFMRGDAARLPFPDDHFDTVFAMRFFHLADTPAAFLAEMRRVSKEQVFFDTFNRFSTRSIYNWALPMGSRLYSRWEIDRLLDGAGLELTDANHDWLLPYGFYRKIPNELAASFRSLDTALGGTPLGEKLASVSYWNTHVLEHHHHHH	failed
MLAGADKVFLYAKPEQIEAFVAAAQSAGVRQVVLLSSVSVVMATSEQNPIARMHRTVELAIERSGLDWTFIRPGMFATNARWWWGESIRGEGVVRLPYPEAQNAPVHEKDMAALAVTALTEPGHSHQAYTVHGSESLTLRRQVEHIGEALGRPIRVETVSVEQAREEFAEKAPSNVAEALLRMWAAADGVPAPVSVIVDRITGRPAHTFAQWAADHADDFR	failed
MLAIFQKAFAHPPEELNSPASHFSGKTPKLPGETLSDFLSHHQNNAFSMNFGDSAVLAYARQETSLRQRLFCGLDGIYCMFLGRLNNLCTLNRQYGLSGKNSNEAMFVIEAYRTLRDRGPYPADQVLRGLEGSFAFVVYDTQTSSVFSALSSDGGESLYWGISGDGSVVMSDDIQIIKQGCAKSFAPFPNGCMFHSETGLKSFDHPTNMMKAMPRIDSEGVLCGASFKVDACSKINSIPRRGSEANWALANSR	failed
MLAILGFVMMIVFMYLIMSNRLSALIALIVVPIVFALISGFGKDLGEMMIQGVTDLAPTGIMLLFAILYFGIMIDSGLFDPLIAKILSFVKGDPFKIAVGTAVLTMTISLDGDGTTTYMITIRAMLPLYKRLGMNRLVLAGIAMLGSGVMNIIPWGEPTARVLASLKLDTSEVFTPLIPAMIAGILWVIAVAYILGKKERKRLGVISIDHAPSSDPEAAPLKRPALQWFNLLLTVALMAALITSLLPLPVLFMTAFAVALMVNYPNVKEQQKRISAHAGNALNVVSMVFAAGIFTGILSGTKMVDAMAHSTRSLIPDAMGPHLPLITAIVSMPFTFFMSNDAFYFGVLPIIAEAASAYGIDAAEIGRASLLGQPVHLLSPLVPSTYLLVGMAGVSFGDHQKFTIKWAVGTTIVMTIAALLIGIISF	failed
MLAMHGSKEKMMTSYQTIIQNHQPLAPARYTAKRIIKNDAEALQIATELSQSFKEKSIQRDAERVLPFDEIEAFSQSGLWAITVPKRYGGAEVSSLTLAKIIALFSGVDGSIGQIPQNHFYALEVLRNTGTEQQKQRLYQEVLSGLRLGNALAEFKPKNASLKQTQIKAIETGYVINGEKFYCTGSLFAHRIPTLVIDEEGREYLAFVRSDSEGLSLIDNWTGFGQRVTGSGGVKFTQVFVAAEDVIPFDSAFQHPTLVGPFAQLMHAAIEVGIARAAFEEALKRVHAARPWIDSNVDAAAQDPLTIYEIGRVAADVHASEALLKHAALTIDEVRLNTNVETIAKASIAVAKIRAHSTETALKASSKLIELAGSRGSQSVDGLDRFWRNARVHTLHDAARWKYYFIGNYVLNDIFPPRRGTL	failed
MLAVLIGQHGEYLLIFLVSPGQFQEGVMTVHDHWQMDASAPELYERYLVPAITSVWADDLLDRIDPAKGECVLDVACGTGVVARRLAERGHVGRLVGIDLNGAMLAVARAKSSDVEWTEGSALDLPFATRSFDVVLCQLGLQFFPDRPQALREMARVLKPSGRLGLSVYSAIEHTPAANAFVQALDGFLGPESSRTKRAEHLTCNADEVGNWVRQAGFDRVGVETVTKQIGFPSALDYVRFQLTATPMAALLTREDDAGRERTIAAIADDVAARLDPSILANGRLTFPQESFVVVASLR	failed
MLAYQGLFQNGLMQVSPSYFSQTYLLGDVNYQTVGLDDKGAIVEKYSDLINSLDDKTNFQLTIFNQKVNLEKFRKSILYPLQEDGFDTYRDELNRMMDANLEAGENNFSAVKFLSFGKSDQTPKLAFRSLSQIGEYFKSGFSEIDVSLGLLGGEERVNVLADMLRGENHLPFSYKDLTLSGQSTKHFIAPTYLSFKHKNHIELDDRLLQIVYVRDYGMELGDKFIRDLMQSDLEVMISLHAKGSTKSETMTKLRTKKTLMESQKIGEQQKMARTGIYLEKVGHVLENNIDEAEALLQTMTQTGDKLFDTVFLIGVLADTEDQLKQSLDIIKQVAGSNDMIIDNLTYMQEAAFNSLLPFGKNYLEGVSRSLLTSNIAVNAPWTSVDIHDKGGKFYGINQISSNIISIDRGKLNTPSGLILGTSGAGKGMATKHEIISTKLKEADSDTEIIIVDPENEYSIIGQAFGGESIDIAPDSTTFLNVLELSDENMDEDPVKVKSEFLLSWIGKLLDRKMDGREKSLIDRVTRLTYKHFDTPSLVEWVFVLSQQPEQEAKDLALDMELYVEGSLDIFSHRTNIKTDSHFLIYNVKKLGDELKQIALMVIFDQIWNRVVKNQKLGKKTWIYFDEMQLLLLDKYASDFFFKLWSRVRKYGAIPTGITQNVETLLLDANGRRIIANSEFMILLKQAKSDREELVHMLGLSKELEKYLVNPEKGAGLIKAGSTVVPFKNKIPQHTKLFDIMSTDPEKMRTLEHHHHHH	failed
MLCRKNSSLVDRGNVPVYLNVYDLTPINGYAYWLGLGVYHSGVEVHGIEYAYGAHEYPSTGIFEGEPKQCEGFTFRKSILIGKTDLGPLEVRATMEQLADNYKGSSYNLITKNCNHFCDETCIKLTGNPIPSWVNRLARIGKFSGFMCNCVLPATINATRFGNNRVNQDKSCEAENEKKKLTSVSSRERSTIATPSSSSSSPSVQVRGRSRKRRPRALQPSSPLTLGSSSV	failed
MLDAKTSTLLWAAETFTLAVLLGTLWLHRPSRRHNLYFAAGFLATGFGTVMVALRGDISSFLSIQVGNTLALSAFGFWLAGLLSLEQRKLGGWIAIPALLWIAGMFVPSVPEDMVARILLYHASAATGYFMLAGVLLGSRARASRSRKVLATILILQAFAGAIVASIVIPANAAVPNAIPMTSALSISGMLGFTAIIMISAKIIMEDTEIRLHRLAMTDHLTGVLNRRGLLEEFEHIKKRSHGSDRYVALVLFDIDHFKKINDRYGHQSGDAVLVHFCNIAQRVIGERGLFVRMGGEEFALVAEVESPSSTVTLAEAIRSNLRLSKITARNEAIKVTTSVGISEAMIKDADLSVMMTEADRALYAAKKAGRNRTVIHVNSANVVVPAPDRDENPMDNNADRQVAALNRISAIASR	failed
MLDDVLALIREHDRFFITTHLGPDGDAVGSQLALGRFLEKMGKSVAMVNADEVDYNLDWMPGAGDIAVFDGSLGQHEALAEAEVAFVLDTNDEERIGKVGSLVRDATATTVLVDHHLEPEHWFDVFFVREEAAATGELVYEIIDGLAPDLIDEGIATALYTAIMTDTGSFRYSSVTPALHRSVADILERGGIGPAPIHETIYDRKSMPGLRLLGRMLNRIRLRYNGQLGYSVVTQRMVEDTGASWDDKQGFVNYVLSIEDVKTALLFSETDDGAKISFRSEADVRVDQWARHFGGGGHRNAAGAYVKRPTFEKTIETVIDAASDYIAFDARHAPDDDLSPEDQSYLETLLDDPSDSPLEHHHHHH	failed
MLDKNKFIQINLVPCHFCYSFLSYASILEAIMKFKNILVVLNPSNEKQYALARAVRLVEEQKNETKVKITALLSVYDLSYEMSALLSSEERSEMHQQVIEKHRHAVQYYLDKYANPEIELQSHIVWNSNEADAINEEVENNNYDLVVKYTKDEEKLTSLIFTPIDWQLLRKCPIPVLMVRDGDWKHPRRILVAVNVSGEQEYQDEFNQELVETGISLAENLNRGNVHLVAAYPSAPINMAIDLPEFNTSGYENGIRGQHLINMKALRQKFGIDEDHTHVREGFPEEVIPEVAKEIEAELVILGTVGRTGLSAALLGNTAEHVISKLSCNLLGIKPSKKDD	failed
MLDPATIVAVPAPGRACGPCTLCCKVYDVPAVESPAGRWCRHVRSGGGCGIHAERPDHCRAFHCLWMTETWIGPEWRPDRAKMVLSLDPVTRFLNVQVDPGQAGAWKRAPYHDQLRRWAAASLPLQRYVLVHVNKVTTVVLPDRDVALGTFGPGDRLVGRERMTPAGMTADVEKVSQLA	failed
MLDRLRSIPVRGLFARLFSWLFFGLAFALVAATIVDVFELLNSDEPLMQAMINGVNGSIIALAVYELAMVIRSEYSGRSETHDIVTMMRRTLPRFISTVCVAMSLEGLIMIIKYSQLDLAGNLVYPVAIIASTALLLAALGVFLKMAPKEIGANGCDESCTTK	failed
MLDSFEILKALKSLDLLKNAPSWWWPNALKFEALLGAVLTQNTKFEAVLKSLENLKNAFILENDDEINLKKIAYIEFSKLAECVRPSGFYNQKAKRLIDLSKNILKDFQSFENFKQEVTREWLLNQKGVGKESADAILCYVCAKEVMVVDKYSYLFLKKIGIEIEDYDELQHFFEKGVQENLNSALALYENTIPLAQLYARFHGKIVEFSKQKLELKL	failed
